Assay results from paper PMC3135399.

Target: microtubules (taxol-stabilised, of the MT cosedimentation assay) (bovine) (UniProt Q6B856)
Experiment: co-sedimentation

Substance: alkaline phosphatase–treated WT CPC, P38283 1-698; P38991 1-367; P47134 1-954; Q3E7Y6 1-73
- percent cosedimented with MTs: 50%
